According to the RNAGym collection of RNA variant scans (doi:10.1073/pnas.2313332121):

B1: TPR t1 (parent)
chain: GACCAAUCUGCCCUCAGAGCUCGAGAACAUCUUCGGAUGCAGAGGAGGCAGGCUUCGGUGGCGCGAUAGCGCCAACGUCCUCAACCUCCAAUGCAUCCCACCACAUGAUGAUGCCUGAAGAGCCUUGGUUUUUUG

Variants of: B1
Assay: polymerase ribozyme fitness, log enrichment relative to wild type (log ratio); higher = more active; in vitro selection for triplet polymerase activity
Summary of the method: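 Each subunit of a heterodimeric triplet polymerase ribozyme was mutagenized into a library by PCR, transcribed, and subjected to one round of in vitro selection, run in triplicate. Libraries were annealed with a biotinylated primer, the partner subunit and triplets, incubated frozen at −7 °C, and extended constructs were gel-excised, captured on streptavidin beads and recovered by RT-PCR. Input and output libraries were sequenced on Illumina, keeping genotypes with ≥10 input reads and ≥1 read per output. Fitness is log base 2 of genotype enrichment divided by wild-type enrichment, from inverse-variance-weighted replicate averages.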
With U9G C124A U131G the “polymerase ribozyme fitness (log ratio)” value was 1.79. For G10U A37U, the “polymerase ribozyme fitness (log ratio)” value was -0.888. With G10U U87A U92C A121G U132C the “polymerase ribozyme fitness (log ratio)” value was 1.22. In the case of G10C C11U C13A A37U C70U, the “polymerase ribozyme fitness (log ratio)” value is reported as -0.31. In the case of U9G C40G G110U C123G, the “polymerase ribozyme fitness (log ratio)” value is reported as -4.98. For G10A C62A A91C C123U, the “polymerase ribozyme fitness (log ratio)” value was -0.505. With G10U A46C the “polymerase ribozyme fitness (log ratio)” value was -0.286. For U9G C31U, the “polymerase ribozyme fitness (log ratio)” value was -4.02. With U9G C28U C56A C114U A118U U125G U132A the “polymerase ribozyme fitness (log ratio)” value was -5.4. For U9C C56A A95C U116A, the “polymerase ribozyme fitness (log ratio)” value was -2.12. For U9G C12G, the “polymerase ribozyme fitness (log ratio)” value was 0.483. In the case of C11A C15U G44U C72A U129A U132C, the “polymerase ribozyme fitness (log ratio)” value is reported as -5.25. With G10A C73G the “polymerase ribozyme fitness (log ratio)” value was -0.355. In the case of G10C G47U C101A A103U, the “polymerase ribozyme fitness (log ratio)” value is reported as -6.38. For U9C G25A, the “polymerase ribozyme fitness (log ratio)” value was -6.01. For U9G C53U G107C, the “polymerase ribozyme fitness (log ratio)” value was -5.76. With G10A G58C A111G the “polymerase ribozyme fitness (log ratio)” value was 0.287. In the case of U9G C34A G120C, the “polymerase ribozyme fitness (log ratio)” value is reported as -0.929. With G10A G45A A95C C102A the “polymerase ribozyme fitness (log ratio)” value was -2.76. With G10C G39A C56G G113U A118U the “polymerase ribozyme fitness (log ratio)” value was -4.76. With G10U C22G A46G C76A A118U the “polymerase ribozyme fitness (log ratio)” value was -4.37. In the case of U9G G113A, the “polymerase ribozyme fitness (log ratio)” value is reported as -0.0202. With C11A A46C G61U C94A the “polymerase ribozyme fitness (log ratio)” value was -2.34. In the case of U9G C56G G61A, the “polymerase ribozyme fitness (log ratio)” value is reported as -2.17. In the case of G10C C49G C64U A83G U125A, the “polymerase ribozyme fitness (log ratio)” value is reported as -3.57. In the case of G10A C28G U106A G127U G128C, the “polymerase ribozyme fitness (log ratio)” value is reported as -3.76. For U9C C70U G93A, the “polymerase ribozyme fitness (log ratio)” value was 0.136. For C11A A18U G127A, the “polymerase ribozyme fitness (log ratio)” value was -4.94. In the case of G10U C40A C64U U81C, the “polymerase ribozyme fitness (log ratio)” value is reported as -2.46. In the case of U9G G48U G93C A111C, the “polymerase ribozyme fitness (log ratio)” value is reported as -1.91. In the case of G10U C34G C102U, the “polymerase ribozyme fitness (log ratio)” value is reported as -6.42. With U9G G61C C102A G122A U125A the “polymerase ribozyme fitness (log ratio)” value was -4.92. In the case of U9G C123G, the “polymerase ribozyme fitness (log ratio)” value is reported as 1.31. With U9G C123U the “polymerase ribozyme fitness (log ratio)” value was 0.831. In the case of G10A C11U C28A, the “polymerase ribozyme fitness (log ratio)” value is reported as -4.2. With G10A C12G C22G C104G the “polymerase ribozyme fitness (log ratio)” value was -5.13. For G10C G71A G113C, the “polymerase ribozyme fitness (log ratio)” value was -4.81. For G10C A26G G69A U125A, the “polymerase ribozyme fitness (log ratio)” value was -5.51. For G10U G36A G61C, the “polymerase ribozyme fitness (log ratio)” value was -3.3. For U9C G63A, the “polymerase ribozyme fitness (log ratio)” value was 0.19. In the case of U9C G44A C79U C86U G120A, the “polymerase ribozyme fitness (log ratio)” value is reported as 0.952. In the case of G10C C28G, the “polymerase ribozyme fitness (log ratio)” value is reported as -3.74. For G10U U55C C123A, the “polymerase ribozyme fitness (log ratio)” value was 0.286. In the case of U9G G39A C56U, the “polymerase ribozyme fitness (log ratio)” value is reported as 0.0691. For U9G G48U C88A, the “polymerase ribozyme fitness (log ratio)” value was -1.04. In the case of U9C C72U, the “polymerase ribozyme fitness (log ratio)” value is reported as 0.343. In the case of U9C C72G, the “polymerase ribozyme fitness (log ratio)” value is reported as 0.104. In the case of U9G G58U U112A G120A U130C, the “polymerase ribozyme fitness (log ratio)” value is reported as 0.977. With G10U C12U C31U C72U C85A G122A the “polymerase ribozyme fitness (log ratio)” value was -5.23. For G10C G25C C31G C89A C114U, the “polymerase ribozyme fitness (log ratio)” value was -7.2. For G10C C56U G117C, the “polymerase ribozyme fitness (log ratio)” value was -4.57. In the case of G10U C40G, the “polymerase ribozyme fitness (log ratio)” value is reported as -0.556. With U9C C80G the “polymerase ribozyme fitness (log ratio)” value was -5.3. With G10U C53A G77C U78A G107C A121U the “polymerase ribozyme fitness (log ratio)” value was -4.29. With G10A G36C A50G U92G the “polymerase ribozyme fitness (log ratio)” value was -3.51. With C11A A18U U21A C56U the “polymerase ribozyme fitness (log ratio)” value was -3.04. For U9G A16U C82U C88U A95U U130G, the “polymerase ribozyme fitness (log ratio)” value was -0.874. For U9G G10C C11A C15A A37G U78C C85U A95U C123U, the “polymerase ribozyme fitness (log ratio)” value was -3.97. For G10C C13A C64U C82U A83C, the “polymerase ribozyme fitness (log ratio)” value was -1.29. With G10C C89A the “polymerase ribozyme fitness (log ratio)” value was -2.73. In the case of G10U C76A, the “polymerase ribozyme fitness (log ratio)” value is reported as -1.51. For G10U U21A G60U G71A C89U C101U C124A, the “polymerase ribozyme fitness (log ratio)” value was -6.77. With C11A A41U G45C the “polymerase ribozyme fitness (log ratio)” value was -3.39. For G10A U32C C72G U87A U131A, the “polymerase ribozyme fitness (log ratio)” value was -2.99. With G10C A103U C123U the “polymerase ribozyme fitness (log ratio)” value was -5.06. For G10U C28G A46U G52A G63A U87C, the “polymerase ribozyme fitness (log ratio)” value was -5.27. With U9G C70A G71A G127C the “polymerase ribozyme fitness (log ratio)” value was -4.46. With U9G G10C C11A C89U A103U U109A the “polymerase ribozyme fitness (log ratio)” value was -5.83. For U9G A46U A91C G117A, the “polymerase ribozyme fitness (log ratio)” value was -1.93. With U9G C13U G17U U87C the “polymerase ribozyme fitness (log ratio)” value was -0.186. With G10A C20A U87A C124U the “polymerase ribozyme fitness (log ratio)” value was -0.469. With G10U C22U G47A G63C U96A C123A the “polymerase ribozyme fitness (log ratio)” value was -5.69. In the case of G10A C56G G117A, the “polymerase ribozyme fitness (log ratio)” value is reported as -3.95. In the case of U9G C34A, the “polymerase ribozyme fitness (log ratio)” value is reported as -1.59. For U9G C34G, the “polymerase ribozyme fitness (log ratio)” value was -4.16. In the case of U9G C34U, the “polymerase ribozyme fitness (log ratio)” value is reported as -3.92. In the case of G10C G61A G93C, the “polymerase ribozyme fitness (log ratio)” value is reported as -1.11. In the case of G10U G36A C64G A83G C94G G110U, the “polymerase ribozyme fitness (log ratio)” value is reported as -7.24. For G10A C13U U30G A46C C72U C123G, the “polymerase ribozyme fitness (log ratio)” value was -6.25. For G10C A83U U106G, the “polymerase ribozyme fitness (log ratio)” value was -3.53. With U9G C31U C94G the “polymerase ribozyme fitness (log ratio)” value was -6.42. For G10C G57C G117C, the “polymerase ribozyme fitness (log ratio)” value was -4.35. For G10C A26C G120C G122A C123G G128A, the “polymerase ribozyme fitness (log ratio)” value was -5.85. For U9G A27U U133G, the “polymerase ribozyme fitness (log ratio)” value was -2.53.
